Test results reported in publication PMC4733626.

Target: wild-type metallo-β-lactamase L1 (UniProt P52700)
Assay: SEC

Substance “spin-labeled T163C/K286C mutant of metallo-β-lactamase L1 (enzyme)” has a stoichiometry N of 4.
